From patent US20170145086A1 (VISTERRA, published 2017)
Substitutions are numbered along the chain they refer to.

T1: HA-GCN4 hAPRIL (amino acid residues 105-250) (human, UniProt O75888 105-250)
T1 construct: Bought (R&D Systems); also called HA-tagged GCN4 human APRIL; HA-GCN4-huAPRIL; not shown: N-terminal HA tag; GCN4 isoleucine zipper oligomerization domain
T1 sequence: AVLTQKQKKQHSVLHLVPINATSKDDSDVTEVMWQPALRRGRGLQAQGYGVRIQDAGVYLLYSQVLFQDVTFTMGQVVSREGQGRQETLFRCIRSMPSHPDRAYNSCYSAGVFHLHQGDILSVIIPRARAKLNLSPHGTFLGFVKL

T2: human RANKL (TNFSF11; Adipogen) (human, UniProt O14788 152-317, limits assumed)
T2 sequence (looked up): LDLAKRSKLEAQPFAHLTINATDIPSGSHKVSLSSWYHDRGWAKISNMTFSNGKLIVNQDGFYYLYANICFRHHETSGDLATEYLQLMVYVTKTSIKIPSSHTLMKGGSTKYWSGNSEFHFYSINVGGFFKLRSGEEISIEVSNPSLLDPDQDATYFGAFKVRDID

T3: human FasL (TNFSF6, Adipogen) (human, UniProt P48023 103-281, limits assumed)
T3 sequence (looked up): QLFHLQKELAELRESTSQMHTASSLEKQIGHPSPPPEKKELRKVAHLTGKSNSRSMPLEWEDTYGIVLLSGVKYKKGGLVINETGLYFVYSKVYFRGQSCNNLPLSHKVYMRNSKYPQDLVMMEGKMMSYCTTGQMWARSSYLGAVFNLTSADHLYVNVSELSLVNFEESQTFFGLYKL

B1: monoclonal antibody 3530 (antibody, mouse IgG2, V domains shown)
VH: QVQLQQSGAELVRPGASVKLSCKASGYTFTDHEMHWVRQTPVHGLEWIGVIDPDTGDTTYNQKFKGKATLTADKSSSTAYMDLRSLTSEDSAVFYCTRWTGGDYWGHGTTLTVSS
VL: DAVMTQTPLSLSVTIGQPASISCKSSQSLLYSDGKTYLNWFQQRPGQSPKRLMYQVSKLDPGIPDRFSGSGSETDFTLKISRVEAEDLGVYYCLQGTYYPYTFGSGTKLEIK
B2: monoclonal antibody 2218 (antibody, mouse IgG2, V domains shown)
VH: DVQLQESGPGLVKPSQSLSLTCSVTGYSITSGYYWNWIRQFPGNKLEWMGYISYDGYNNYNPSLKNRISITRDTSKNQFFLKLNSVTTEDTATYYCANYYDYEDWYFGVWGTGTTVTVSS
VL: DIVLTQSPASLAMSLGKRATISCRASESVSIIGTNSIHWYQQKPGQPPKLLIYHASNLETGVPARFSGSGSRTDFTLTIDPVEEDDVAIYYCLQSRKIPYTFGGGTKLEIK
B3: monoclonal antibody 3631 (antibody, V domains shown)
VH: EIQLQQSGPELVKPGASVKVSCKASGYSFTDYNIYWVKQSHGKSLEWIGYIDPSNGGPGYNQKFRGKATLTVDKSSSTAFLHLNSLTSEDSAVYYCARRDNYGSGTMDYWGQGTSVTVSS
VL: DIVMTQSQKFMSTSVGDRVSITCKASQNVGTDVSWYQQKPGKSPKPLIYWASNRFTGVPDRFIGSGSGTDFTLTISNVQSEDLADYFCEQYSIYPLTFGAGTKLELK
notes: mouse-derived
B4: monoclonal antibody 4540 (antibody, V domains shown)
VH: QVQLQQSGPELVKPGASVKISCKASGYTFADYYINWVKQRPGQGLEWIGWIFPGSGSTYYNEKFKGKATLTVDKSSSTAYMLLSSLTSEDSAVYFCARGDSGRAMDYWGQGTSVTVSS
VL: DIQMTQSPSSLSASLGGKVTITCKASQDINKYIAWYQHKPGKGPRLLIHYTSTLQSGIPSRFSGSGSGRDYSFSISNLEPEDNATYYCLQYDNLLTFGAGTKLELK
notes: mouse-derived
B5: monoclonal antibody 3833 (antibody, V domains shown)
VH: QVQLQQSGAELVRPGTSVKMSCKAAGYTFTNYWIGWVKQRPGHGLEWIGDIYPGGIGGGYTKYNEKFKGKATLTADTSSSTAYMQLGSLTSEDSAIYFCSRSETGRAMDYWGQGTSVTVSS
VL: B4 VL with Q55K, S56P, N77D, N83I, L95N, A99G, L105I
notes: mouse-derived
B6: monoclonal antibody 3732 (antibody, V domains shown)
VH: B3 VH with Y32D, I34M, S54L, P58T, R65K, G103A, S104T
VL: B3 VL with Q27K, I63T, S76N, I93S
notes: mouse-derived

Target: T1, HA-GCN4 hAPRIL (amino acid residues …)
Assay: blocking ELISA; blocked: human APRIL binding to human TACI-Fc
Parameters: concentration or dose not given beside the values
Protocol: (§1) FIGS. 19A-19B depict the antibody inhibition of APRIL binding to TNFSF receptors TACI (FIG. 19A) and BCMA (FIG. 19B). Assay is based on blocking ELISA using recombinant human APRIL (R&D Systems) and Human TACI-Fc. Inhibition was analyzed by non-linear regression using a four parameter fit.
(§2) Recombinant TACI-Fc or BCMA-Fc was coated on 96 well plates in 0.1 M carbonate-bicarbonate buffer (pH 9.6), overnight at 4° C. Plates were washed three times with 1×PBST (PBS+0.025% Tween 20) followed by blocking with 1% BSA in 1×PBS, 37° C. for 1 hour. All subsequent wash steps were carried out with 1×PBST. To assess antibody blocking, either 15 ng/mL or 50 ng/mL HA-GCN4-huAPRIL was preincubated with varying antibody concentrations ranging from 0.03-30 μg/mL in binding buffer comprised of 1% BSA and 0.025% Tween-20 in 1×PBS. Preincubation was carried out at 30° C. for 1 hour with mixing. Antibody-APRIL premix with 50 ng/mL APRIL or 15 ng/mL APRIL was then added to TACI-Fc coated or BCMA-Fc coated plates, respectively, and incubated for an additional hour at 30° C. HA-tagged APRIL binding to either receptor was quantified using a goat polyclonal anti-HA tag-HRP antibody (Abcam) added at a 1:10000 dilution followed by colorimetric development using 100 μl/well of freshly prepared TMB substrate (KPL) carried out for up to 30 minutes at room temperature before quenching enzymatic reaction by the addition of 1N sulfuric acid. ELISA signal was quantified by absorbance at 450 nm. ELISA data was analyzed by non-linear regression. IC₅₀ values were calculated based on a 4 parameter fit of antibody titration curves. […] Non-blocking antibodies Aprly-1 or Aprly-5 (Enzo Biosciences) were used as negative controls. Mouse specific, blocking antibody aprily-1-1 (Adipogen) was generally used as a positive control in experiments using mouse APRIL (HA-GCN4-mAPRIL).

% Inhibition [%] | Binder
89 | B1
40 | B2
63 | B3
65 | B4
72 | B5

Target: T2, human RANKL (TNFSF11; Adipogen)
Assay: indirect ELISA, cytokine coated
Protocol: (§3) Selected anti-APRIL antibodies were evaluated for potential cross-reactivity with other members of the TNFa superfamily (TNFSF) family of cytokines, including: human TNFα (TNFSF2; Adipogen), human […] (TNFSF4, Adipogen), human FasL (TNFSF6, Adipogen), human TRAIL (TNFSF10, Adipogen), human RANKL (TNFSF11; Adipogen), human Tweak (TNFSF12; Abcam), human and mouse BAFF (TNFSF13B, AB Biosciences and Adipogen, respectively), and human LIGHT (TNFSF14, Adipogen). These cytokines share variable degree of sequence as well as higher order structural homologies. Among them, BAFF appears to be the most closely related to APRIL, with 29% identity and 53% amino acid sequence similarity.
(§4) Binding was evaluated by an indirect ELISA protocol using similar methods described for evaluation of APRIL binding; cytokines were immobilized to ELISA plate at 50 ng per well and then exposed to a solution of each of the test antibodies at a fixed concentration of 10 μg/ml Anti-human or anti-mouse Ig-HRP polyclonal antibody conjugates (Jackson Laboratories) were used for detection of antibody binding. The results presented in FIG. 36 indicated eleven of the twelve antibodies tested in this assay to specifically bind APRIL with no measurable cross-reactivity with the other TNFSF members substantially above assay background.

binding result | Binder
no binding (tested: 10 µg/ml (p-1128)) | B1
no binding (tested: 10 µg/ml (p-1128)) | B2
no binding (tested: 10 µg/ml (p-1128)) | B3
no binding (tested: 10 µg/ml (p-1128)) | B6
no binding (tested: 10 µg/ml (p-1128)) | B4
no binding (tested: 10 µg/ml (p-1128)) | B5

Target: mouse BAFF (TNFSF13B, Adipogen) (mouse, UniProt Q9WU72 127-309, limits assumed)
Sequence (Q9WU72 127-309 limits assumed): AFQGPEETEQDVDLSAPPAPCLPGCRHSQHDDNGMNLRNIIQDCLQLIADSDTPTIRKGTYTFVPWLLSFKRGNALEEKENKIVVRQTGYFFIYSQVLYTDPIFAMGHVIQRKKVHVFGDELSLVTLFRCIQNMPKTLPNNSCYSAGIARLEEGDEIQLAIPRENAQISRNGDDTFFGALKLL
Assay: indirect ELISA, cytokine coated
Protocol: as §3, §4

binding result | Binder
no binding (tested: 10 µg/ml (p-1128)) | B1
no binding (tested: 10 µg/ml (p-1128)) | B2
no binding (tested: 10 µg/ml (p-1128)) | B6
no binding (tested: 10 µg/ml (p-1128)) | B4
no binding (tested: 10 µg/ml (p-1128)) | B5

Target: T3, human FasL (TNFSF6, Adipogen)
Assay: indirect ELISA, cytokine coated
Protocol: as §3, §4

binding result | Binder
no binding (tested: 10 µg/ml (p-1128)) | B1
no binding (tested: 10 µg/ml (p-1128)) | B2
no binding (tested: 10 µg/ml (p-1128)) | B3
no binding (tested: 10 µg/ml (p-1128)) | B6
no binding (tested: 10 µg/ml (p-1128)) | B4

Target: human BAFF (TNFSF13B, AB Biosciences) (human, UniProt Q9Y275 134-285, limits assumed)
Assay: indirect ELISA, cytokine coated
Protocol: as §3, §4

binding result | Binder
no binding (tested: 10 µg/ml (p-1128)) | B1
no binding (tested: 10 µg/ml (p-1128)) | B2
no binding (tested: 10 µg/ml (p-1128)) | B6
no binding (tested: 10 µg/ml (p-1128)) | B4
no binding (tested: 10 µg/ml (p-1128)) | B5

Target: human TRAIL (TNFSF10, Adipogen) (human, UniProt P50591 95-281, limits assumed)
Sequence (P50591 95-281 limits assumed): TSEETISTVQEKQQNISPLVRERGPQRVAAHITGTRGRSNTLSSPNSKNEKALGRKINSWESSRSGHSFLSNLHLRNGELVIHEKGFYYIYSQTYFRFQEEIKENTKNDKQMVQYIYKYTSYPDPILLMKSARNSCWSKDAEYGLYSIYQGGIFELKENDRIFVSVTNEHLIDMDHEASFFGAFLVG
Assay: indirect ELISA, cytokine coated
Protocol: as §3, §4

binding result | Binder
no binding (tested: 10 µg/ml (p-1128)) | B1
no binding (tested: 10 µg/ml (p-1128)) | B2
no binding (tested: 10 µg/ml (p-1128)) | B3
no binding (tested: 10 µg/ml (p-1128)) | B6
no binding (tested: 10 µg/ml (p-1128)) | B4
no binding (tested: 10 µg/ml (p-1128)) | B5

Target: human LIGHT (TNFSF14, Adipogen) (human, UniProt O43557 89-240, limits assumed)
Sequence (O43557 89-240 limits assumed): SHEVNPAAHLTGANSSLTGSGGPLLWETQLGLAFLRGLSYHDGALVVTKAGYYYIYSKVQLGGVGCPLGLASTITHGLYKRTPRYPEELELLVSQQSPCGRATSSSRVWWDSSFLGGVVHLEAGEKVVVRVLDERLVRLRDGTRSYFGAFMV
Assay: indirect ELISA, cytokine coated
Protocol: as §3, §4

binding result | Binder
no binding (tested: 10 µg/ml (p-1128)) | B1
no binding (tested: 10 µg/ml (p-1128)) | B2
no binding (tested: 10 µg/ml (p-1128)) | B3
no binding (tested: 10 µg/ml (p-1128)) | B6
no binding (tested: 10 µg/ml (p-1128)) | B4
no binding (tested: 10 µg/ml (p-1128)) | B5

Target: human TNFα (TNFSF2; Adipogen) (human, UniProt P01375 85-233, limits assumed)
Sequence (P01375 85-233 limits assumed): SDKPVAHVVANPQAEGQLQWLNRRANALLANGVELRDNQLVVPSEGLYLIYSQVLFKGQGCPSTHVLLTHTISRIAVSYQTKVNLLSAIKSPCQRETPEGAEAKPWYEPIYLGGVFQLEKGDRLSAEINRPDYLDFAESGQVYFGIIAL
Assay: indirect ELISA, cytokine coated
Protocol: as §3, §4

binding result | Binder
no binding (tested: 10 µg/ml (p-1128)) | B1
no binding (tested: 10 µg/ml (p-1128)) | B2
no binding (tested: 10 µg/ml (p-1128)) | B3
no binding (tested: 10 µg/ml (p-1128)) | B6
no binding (tested: 10 µg/ml (p-1128)) | B4
no binding (tested: 10 µg/ml (p-1128)) | B5

Target: T1, HA-GCN4 hAPRIL (amino acid residues …)
Assay: blocking ELISA, 4-parameter fit; blocked: human APRIL binding to human BCMA-Fc
Protocol: as §1, §2

IC50 [nM] | Binder
0.48 | B1
0.31 | B2
0.48 | B3
0.22 | B6
0.66 | B4
2.7 | B5
